Assay results published in article PMC4050180 (FEBS Open Bio, 2014).

T1: 6xHis-TF-DGKα-C1 domains (porcine, UniProt P20192 196-362)
T1 sequence (looked up): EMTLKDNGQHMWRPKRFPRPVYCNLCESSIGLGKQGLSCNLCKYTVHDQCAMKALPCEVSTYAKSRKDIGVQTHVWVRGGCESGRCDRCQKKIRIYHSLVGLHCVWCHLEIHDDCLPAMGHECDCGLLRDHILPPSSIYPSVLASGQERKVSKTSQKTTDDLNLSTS

B1: GST-DGKα-EF-hand motifs (domain or fragment)
chain: not shown

How the values were obtained:
[1] = biological target: B1; assay: pull-down
[2] = biological target: T1, 6xHis-TF-DGKα-C1 domains; assay: pull-down

band intensity relative to the RVH domain [1] [fold] | binding result [2] | Binder
~3 | – | EGFP-DGKα-C-terminal region (domain or fragment) not shown
– | binds | B1
